How the values were obtained:
[1] = tested on: T1, N1-21-ABE8e (Neisseria meningitidis); test: cell_activity; conditions: E. coli ABE-PPA
T1 sequence: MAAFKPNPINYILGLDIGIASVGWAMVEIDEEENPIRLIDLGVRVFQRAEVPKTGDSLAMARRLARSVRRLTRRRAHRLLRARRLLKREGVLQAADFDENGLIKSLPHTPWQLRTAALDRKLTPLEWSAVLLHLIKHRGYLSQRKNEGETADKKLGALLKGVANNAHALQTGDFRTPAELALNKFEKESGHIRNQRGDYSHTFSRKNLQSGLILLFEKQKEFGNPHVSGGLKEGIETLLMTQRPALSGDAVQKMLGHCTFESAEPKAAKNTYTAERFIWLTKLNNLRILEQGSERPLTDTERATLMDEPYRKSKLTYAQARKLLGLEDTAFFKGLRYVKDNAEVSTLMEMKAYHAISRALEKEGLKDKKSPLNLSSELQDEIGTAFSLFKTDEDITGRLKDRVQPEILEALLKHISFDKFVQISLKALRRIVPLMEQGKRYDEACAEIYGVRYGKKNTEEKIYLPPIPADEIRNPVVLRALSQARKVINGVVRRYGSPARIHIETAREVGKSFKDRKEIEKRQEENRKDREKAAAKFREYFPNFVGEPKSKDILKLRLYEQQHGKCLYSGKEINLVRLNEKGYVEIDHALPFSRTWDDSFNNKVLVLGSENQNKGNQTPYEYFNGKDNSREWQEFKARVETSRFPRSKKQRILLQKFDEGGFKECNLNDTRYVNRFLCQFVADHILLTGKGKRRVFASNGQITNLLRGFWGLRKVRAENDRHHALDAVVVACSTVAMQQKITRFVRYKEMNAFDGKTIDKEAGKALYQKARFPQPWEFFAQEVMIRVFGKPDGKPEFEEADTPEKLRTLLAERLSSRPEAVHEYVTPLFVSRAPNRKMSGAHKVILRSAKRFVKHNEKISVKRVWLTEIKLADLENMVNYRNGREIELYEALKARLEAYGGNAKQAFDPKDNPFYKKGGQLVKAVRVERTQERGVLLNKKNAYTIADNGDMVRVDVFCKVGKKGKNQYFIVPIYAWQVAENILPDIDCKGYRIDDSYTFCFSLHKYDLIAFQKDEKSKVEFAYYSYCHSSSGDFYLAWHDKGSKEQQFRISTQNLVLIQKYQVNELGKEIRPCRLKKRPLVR

[2] = tested on: T2, E2-12-ABE8e (Neisseria meningitidis); test: cell_activity; conditions: PAM N4YNC average, E. coli ABE-PPA; 33% on N4YND
T2 sequence: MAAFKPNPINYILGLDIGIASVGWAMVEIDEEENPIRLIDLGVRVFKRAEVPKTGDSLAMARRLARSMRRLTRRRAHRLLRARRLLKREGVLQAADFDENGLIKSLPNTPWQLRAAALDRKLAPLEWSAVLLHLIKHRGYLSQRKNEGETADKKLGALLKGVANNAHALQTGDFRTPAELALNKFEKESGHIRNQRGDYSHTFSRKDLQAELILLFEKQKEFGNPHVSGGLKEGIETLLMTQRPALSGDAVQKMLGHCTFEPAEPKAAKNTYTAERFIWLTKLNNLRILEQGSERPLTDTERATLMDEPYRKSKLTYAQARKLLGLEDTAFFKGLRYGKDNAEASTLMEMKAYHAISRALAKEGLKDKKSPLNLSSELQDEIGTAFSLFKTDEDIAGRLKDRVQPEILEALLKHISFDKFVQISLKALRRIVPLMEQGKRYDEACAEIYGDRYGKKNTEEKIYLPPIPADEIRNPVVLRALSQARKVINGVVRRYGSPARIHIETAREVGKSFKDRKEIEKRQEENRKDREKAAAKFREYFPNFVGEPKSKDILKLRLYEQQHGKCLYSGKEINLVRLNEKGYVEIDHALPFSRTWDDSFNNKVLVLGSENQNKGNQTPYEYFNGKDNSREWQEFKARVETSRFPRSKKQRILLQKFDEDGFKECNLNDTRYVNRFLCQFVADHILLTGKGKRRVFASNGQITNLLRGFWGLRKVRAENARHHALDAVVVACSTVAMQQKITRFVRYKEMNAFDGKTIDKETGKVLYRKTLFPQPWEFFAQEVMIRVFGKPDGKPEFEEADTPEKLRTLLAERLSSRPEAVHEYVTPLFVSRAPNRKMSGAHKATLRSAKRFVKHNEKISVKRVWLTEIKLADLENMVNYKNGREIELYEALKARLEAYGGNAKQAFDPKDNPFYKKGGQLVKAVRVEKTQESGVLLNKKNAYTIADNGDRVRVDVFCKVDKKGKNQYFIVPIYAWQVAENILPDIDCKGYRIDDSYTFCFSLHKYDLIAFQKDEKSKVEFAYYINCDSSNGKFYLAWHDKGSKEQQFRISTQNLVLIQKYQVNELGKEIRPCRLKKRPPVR

In the case of “AUGGCCCAGACUGAGCACGUGAGGUUGUAGCUCCCUUUCUCAUUUCGGAAACGAAAUGAGAACCGUUGCUACAAUAAGGCCGUCUGAAAAGAUGUGCCGCAACGCUCUGCCCCUUAAAGCUUCUGCUUUAAGGGGCAUCGUUUA / ATGGCCCAGACTGAGCACGTGA / TCACGTGCTCAGTCTGGGCCAT [ABE-PPA sgRNA ; ABE-PPA protospacer library target]”, the activity (% A-to-G conversion) ([1]; PAM N3CCC (counterselected), virtually eliminated) is reported as 4.8, the activity (% A-to-G conversion) ([1]; PAM N3TTG, 64% average on N4GN PAMs) is reported as 67 and the activity (% A-to-G conversion) [2] is reported as 58.
